Measurements as given in patent US20260056186A1 (JIANGSU HENGRUI PHARMACEUTICALS, published 2026).
Like-named read-outs stand apart in the source and are kept apart here.

T1: IFNAR1 (human, UniProt P17181 28-557)
T1 sequence (looked up): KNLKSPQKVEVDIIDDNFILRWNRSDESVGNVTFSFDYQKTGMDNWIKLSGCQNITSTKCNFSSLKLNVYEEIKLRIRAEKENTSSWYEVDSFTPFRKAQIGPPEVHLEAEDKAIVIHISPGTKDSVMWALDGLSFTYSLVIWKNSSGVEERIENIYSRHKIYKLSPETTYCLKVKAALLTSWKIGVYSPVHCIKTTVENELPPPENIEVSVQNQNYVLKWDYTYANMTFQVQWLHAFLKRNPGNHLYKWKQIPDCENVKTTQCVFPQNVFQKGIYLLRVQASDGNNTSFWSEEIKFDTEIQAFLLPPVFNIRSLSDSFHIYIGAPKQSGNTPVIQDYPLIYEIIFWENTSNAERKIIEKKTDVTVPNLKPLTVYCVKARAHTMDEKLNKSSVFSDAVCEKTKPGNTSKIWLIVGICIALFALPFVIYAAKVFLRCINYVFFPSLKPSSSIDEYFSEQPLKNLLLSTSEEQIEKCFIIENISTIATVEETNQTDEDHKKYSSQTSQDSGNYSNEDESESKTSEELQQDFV

T2: recombinant human APRIL (R&D cat: 5860-AP-010/CF) (human, UniProt O75888 105-250, limits assumed)
T2 sequence (looked up): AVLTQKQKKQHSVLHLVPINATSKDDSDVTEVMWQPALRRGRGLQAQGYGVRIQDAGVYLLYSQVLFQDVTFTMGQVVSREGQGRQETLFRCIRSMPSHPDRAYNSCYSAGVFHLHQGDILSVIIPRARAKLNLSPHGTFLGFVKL

T3: APRIL (Acro Biosystems, Cat: APL-H52D1) (UniProt O75888 115-250, limits assumed)
T3 construct: also called ARPIL
T3 sequence (looked up): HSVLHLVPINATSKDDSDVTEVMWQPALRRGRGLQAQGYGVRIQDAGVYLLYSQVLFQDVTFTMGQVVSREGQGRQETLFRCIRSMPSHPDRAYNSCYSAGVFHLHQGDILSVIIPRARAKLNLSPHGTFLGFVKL


Assays:
IFNAR1 [1] = molecular target: T1, IFNAR1; test: cell-based or functional assay
IFNAR1 [2] = molecular target: T1, IFNAR1; test: cell-based or functional assay; remark: listed apart in the source
[3] = molecular target: T4, recombinant human BAFF (R&D cat: 7537-BF-025/CF) (human, UniProt Q9Y275 134-285); test: cell-based or functional assay
[4] = molecular target: T4, recombinant human BAFF (R&D cat: …); test: cell-based or functional assay; remark: listed apart in the source
[5] = molecular target: T2, recombinant human APRIL (R&D cat: …); test: cell-based or functional assay
[6] = molecular target: T3, APRIL (Acro Biosystems, Cat: APL-H52D1); test: ELISA, APRIL coated; reference telitacicept
[7] = molecular target: T3, APRIL (Acro Biosystems, Cat: APL-H52D1); test: ELISA, APRIL coated at 1 ug/mL, anti-human Fc-HRP, OD450
Procedure: The capabilities of fusion proteins B606401, B637302, B746201, and B805201 to bind to BAFF and APRIL were assessed by ELISA as follows:
BAFF (PeproTech, Cat: 310-13) or ARPIL (Acro Biosystems, Cat: APL-H52D1) was diluted to 1 μg/mL with PBS, and a 96-well plate was coated with the dilution overnight at 4° C. The plate was washed with PBST and blocked with Blocking Buffer (PBST containing 1% BSA) at 37° C. for 1 h. The plate was tapped. The test antibodies were diluted with Blocking Buffer. Incubation was performed at 37° C. for 1.5 h. The plate was washed with PBST. An HRP-mouse anti-human Fc antibody (GenScript, Cat: A01854-200) was diluted with Blocking Buffer. Incubation was performed at 37° C. for 40 min. The plate was washed with PBST. 100 μL of TMB substrate solution (Biopanda, Cat: TMB-S-003) was added, and color development was performed at 37° C. for 3 min. 100 μL of ELISA stop solution (Solarbio, Cat: C1058) was added. OD450 was measured.

[8] = molecular target: T5, BAFF (Sino biological, 10056-HNCH) (UniProt Q9Y275 134-285, biotinylated in the blocking ELISA (site not stated)); test: ELISA, BAFF coated at 1 ug/mL, anti-human IgG-HRP
T5 construct: also called BLyS
Procedure: (§1) In addition, the BAFF binding activity of the constructed TACI-Fc fusion proteins was assessed, and the TACI-Fc fusion proteins' functional activity of blocking the binding of BAFF to BAFF-R was assessed (see Example 1 for the experimental method).
(§2) The BAFF binding activity of the TACI-Fc fusion proteins was assessed as follows: BAFF (Sino biological, 10056-HNCH) protein was diluted with a pH 7.4 PBS (BasalMedia, B320) buffer to 1 μg/mL, and the resulting dilution was added to a 96-well microplate (Corning, 3590) at 100 μL/well. The plate was incubated overnight at 4° C. After the liquid was discarded, 5% skim milk (BD, 232100), diluted with PBS, was added at 300 μL/well for blocking, and the plate was incubated at 37° C. for 2 h. After the blocking, the blocking solution was discarded, and the plate was washed 3 times with a PBST buffer (pH 7.4 PBS containing 0.10% tween-20). Serially diluted test antibody or fusion protein solutions were added at 100 μL/well, and the plate was incubated at 37° C. for 1 h. […] The plate was incubated at 37° C. for 1 h. After the plate was washed 3 times with PBST, the chromogenic substrate TMB (KPL, 5120-0077) was added at 100 μL/well. The plate was incubated at room temperature for 10-15 min, and 1 M H₂SO₄ was added at 50 μL/well to stop the reaction. The absorbance at 450 nm was measured using a microplate reader. Curves for the binding of the antibodies to the antigen were fitted using software, and EC₅₀ values were calculated.

[9] = molecular target: T5, BAFF (Sino biological, 10056-HNCH); test: ELISA, BAFF coated at 1 ug/mL, anti-human IgG-HRP; remark: listed apart in the source
Procedure: as §2
The BAFF binding activity of the constructed TACI-Fc fusion proteins was assessed (see Example 2 for the experimental method), and the results are shown in Table 3: […]

[10] = molecular target: T5, BAFF (Sino biological, 10056-HNCH); test: competition ELISA: fusion protein pre-mixed with biotinylated BAFF, added to coated BAFF-R
Procedure: The above TACI-Fc fusion proteins' function of blocking the binding of BAFF to BAFF-R was further assessed as follows: The receptor protein was diluted with a pH 7.4 PBS (BasalMedia, B320) buffer to 2 μg/mL, and the resulting dilution was added to a 96-well microplate (Corning, 3590) at 100 μL/well. The plate was incubated overnight at 4° C. After the liquid was discarded, 1% Casein blocking solution (Thermo, 37528) was added at 200 μL/well for blocking, and the plate was incubated at 37° C. for 2 h. After the blocking, the blocking solution was discarded, and the plate was washed 3 times with a PBST buffer (pH 7.4 PBS containing 0.1% tween-20) and set aside for later use. A biotinylated ligand protein at a fixed concentration was mixed with a serially diluted antibody or fusion protein, and the mixture was pre-incubated at 37° C. for 30 min and then added to the blocked microplate. The plate was incubated at 37° C. for 1.5 h. After the incubation, the plate was washed 3 times with PBST, and streptavidin-HRP (Invitrogen, 434323, diluted in a 1:4000 ratio) was added at 100 μL/well. The plate was incubated at 37° C. for 1 h. The supernatant was removed. […] The absorbance at 450 nm was measured using a microplate reader. Curves for the inhibition of the binding of the ligand to the receptor were fitted using software, and IC₅₀ values were calculated. […]

[11] = molecular target: T5, BAFF (Sino biological, 10056-HNCH); test: as above; remark: listed apart in the source
Procedure: The above TACI-Fc fusion proteins' function of blocking the binding of BAFF to BAFF-R was further assessed as follows: The receptor protein was diluted with a pH 7.4 PBS (BasalMedia, B320) buffer to 2 μg/mL, and the resulting dilution was added to a 96-well microplate (Corning, 3590) at 100 μL/well. The plate was incubated overnight at 4° C. After the liquid was discarded, 1% Casein blocking solution (Thermo, 37528) was added at 200 μL/well for blocking, and the plate was incubated at 37° C. for 2 h. After the blocking, the blocking solution was discarded, and the plate was washed 3 times with a PBST buffer (pH 7.4 PBS containing 0.1% tween-20) and set aside for later use. A biotinylated ligand protein at a fixed concentration was mixed with a serially diluted antibody or fusion protein, and the mixture was pre-incubated at 37° C. for 30 min and then added to the blocked microplate. The plate was incubated at 37° C. for 1.5 h. After the incubation, the plate was washed 3 times with PBST, and streptavidin-HRP (Invitrogen, 434323, diluted in a 1:4000 ratio) was added at 100 μL/well. The plate was incubated at 37° C. for 1 h. The supernatant was removed. After the plate was washed 3 times with PBST, the chromogenic substrate TMB (KPL, 5120-0077) was added at 100 μL/well. The plate was incubated at room temperature for 10-15 min, and 1 M H₂SO₄ was added at 50 μL/well to stop the reaction. The absorbance at 450 nm was measured using a microplate reader. Curves for the inhibition of the binding of the ligand to the receptor were fitted using software, and IC₅₀ values were calculated. The sources of the ligand and the receptor protein used are as follows: BAFF (Sino biological, 10056-HNCH) and BAFF-R (Sino biological, 16079-H02H).
as §1

T4 sequence (Q9Y275 134-285 limits assumed): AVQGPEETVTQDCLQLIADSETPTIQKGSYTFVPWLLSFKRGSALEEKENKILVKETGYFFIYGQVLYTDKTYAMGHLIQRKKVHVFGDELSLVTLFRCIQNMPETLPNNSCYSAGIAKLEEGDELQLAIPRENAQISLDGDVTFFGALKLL
T5 sequence (Q9Y275 134-285 limits assumed): as above

| Binder | IC50, inhibition of IFN-alpha-induced in vitro differentiation of B cells into plasma cells (CD27+ CD38+) (IFNAR1 [1]) | IC50 (nM), inhibition of the activity of type I interferons (IFN-beta, HEK-Blue IFN-alpha/beta reporter cells) (IFNAR1 [2]) | Flow cytometry proliferating B cell proportion (%), mean value, BAFF-induced, drug at 10 nM (IgG1: 40.15) [3] | Flow cytometry proliferating B cell proportion (%), mean value, BAFF-induced, drug at 100 nM (IgG1: 40.60) [3] | Flow cytometry proliferating B cell proportion (%), mean value, BAFF-induced, drug at 1000 nM (IgG1: 33.97) [3] | CD27+ CD38+ plasma cell count, mean value, BAFF + APRIL-induced (both ligands together), drug at 100 nM (IgG1: 2496) [4] | CD27+ CD38+ plasma cell count, mean value, BAFF + APRIL-induced (both ligands together), drug at 1000 nM (IgG1: 2279) [4] | CD27+ CD38+ plasma cell count, mean value, BAFF + APRIL-induced (both ligands together), drug at 10 nM (IgG1: 2687) [5] | CD27+ CD38+ plasma cell count, mean value, BAFF + APRIL-induced (both ligands together), drug at 100 nM (IgG1: 2496) [5] | CD27+ CD38+ plasma cell count, mean value, BAFF + APRIL-induced (both ligands together), drug at 1000 nM (IgG1: 2279) [5] | EC50 relative to telitacicept [6] | EC50 [7] | Emax [7] | EC50 [8] | EC50 [9] | IC50 [10] | IC50 [11] |
| --- | --- | --- | --- | --- | --- | --- | --- | --- | --- | --- | --- | --- | --- | --- | --- | --- | --- |
| B805201 (other, Fusion protein of anifrolumab and TACI-19-16 (C-terminus of the heavy chain); also called B80521) heavy: EVQLVQSGAEVKKPGESLKISCKGSGYIFTNYWIAWVRQMPGKGLESMGIIYPGDSDIRYSPSFQGQVTISADKSITTAYLQWSSLKASDTAMYYCARHDIEGFDYWGRGTLVTVSSASTKGPSVFPLAPSSKSTSGGTAALGCLVKDYFPEPVTVSWNSGALTSGVHTFPAVLQSSGLYSLSSVVTVPSSSLGTQTYICNVNHKPSNTKVDKRVEPKSCDKTHTCPPCPAPEFEGGPSVFLFPPKPKDTLMISRTPEVTCVVVDVSHEDPEVKFNWYVDGVEVHNAKTKPREEQYNSTYRVVSVLTVLHQDWLNGKEYKCKVSNKALPASIEKTISKAKGQPREPQVYTLPPSRDELTKNQVSLTCLVKGFYPSDIAVEWESNGQPENNYKTTPPVLDSDGSFFLYSKLTVDKSRWQQGNVFSCSVMHEALHNHYTQKSLSLSPGKGGGGSGGGGSGGGGSSTSCREEQGEFYDHLLRDCISCASICGQHPKQCAAFCE light: EIVLTQSPGTLSLSPGERATLSCRASQSVSSSFFAWYQQKPGQAPRLLIYGASSRATGIPDRLSGSGSGTDFTLTITRLEPEDFAVYYCQQYDSSAITFGQGTRLEIKRTVAAPSVFIFPPSDEQLKSGTASVVCLLNNFYPREAKVQWKVDNALQSGNSQESVTEQDSKDSTYSLSSTLTLSKADYEKHKVYACEVTHQGLSSPVTKSFNRGEC | 6.21 nM | 1.63 nM | 20.4% | 24.3% | 15% | 426 cells | 438 cells | 434 cells | 426 cells | 438 cells | 0.333 fold | 0.182 nM | 2.85 | – | – | – | – |
| TACI-9-Fc (Fc fusion, C-terminus of TACI-9 fused directly to the N-terminus of human IgG1 Fc; two identical polypeptide chains; expressed in 293E) SLSCRKEQGKFYDHLLRDCISCASICGQHPKQCAYFCENKLDKTHTCPPCPAPEAEGAPSVFLFPPKPKDTLMISRTPEVTCVVVDVSHEDPEVKFNWYVDGVEVHNAKTKPREEQYNSTYRVVSVLTVLHQDWLNGKEYKCKVSNKALPSSIEKTISKAKGQPREPQVYTLPPSRDELTKNQVSLTCLVKGFYPSDIAVEWESNGQPENNYKTTPPVLDSDGSFFLYSKLTVDKSRWQQGNVFSCSVMHEALHNHYTQKSLSLSPGK | – | – | – | – | – | – | – | – | – | – | – | – | – | 0.49 nM | 0.418 nM | 5.02 nM | 2.09 nM |
